Legend:
iPS cells [1] = assay: Example 5: cell growth on pretreated RCP-11 surface; type: cell-based, human
Experimental: Meanwhile, in the same manner as in <Cell growth property evaluation 1> of Example 3, iPS cells were collected and suspended in Essential 8. The iPS cells were then seeded into the respective wells, to which 2-mercaptoethanol was added so as to accelerate the desorption of RCP-11, at a cell density of 10,000 cells/well, thereby starting culture.
(§1) After the cells were cultured for 72 hours, the number of cells was quantified in the same manner as in <Cell growth property evaluation 1> of Example 3. In the table, each of the residual rate of RCP-11 adsorbed and the cell growth rate is expressed as a ratio calculated by regarding the residual rate of the polypeptide adsorbed and the cell growth rate in the case where the pretreatment with PBS is performed as being 100%.

[2] = Evaluation 2 about amount of residual polypeptide adsorbed (2-mercaptoethanol in PBS); type: physicochemical; conditions: PBS with 2-mercaptoethanol 8.96 μM to 89.6 mM, 37° C.; FIG. 7
Experimental: A cell culture surface coated with RCP-11 was prepared in the same manner as in Example 3, and then PBS containing 2-mercaptoethanol was added thereto such that the final concentration of 2-mercaptoethanol became 89.6 mM (0.7% by mass), 8.96 mM (0.07% by mass), 895.94 μM (0.007% by mass), 89.59 μM (0.0007% by mass), or 8.96 μM (0.00007% by mass), followed by incubation at 37° C. for a predetermined time. Thereafter, in the same manner as in Example 3, the amount of RCP-11 adsorbed was determined, and the residual rate of the polypeptide adsorbed was obtained. In FIG. 7, the amount of residual RCP-11 adsorbed is expressed as a ratio calculated by regarding the amount of RCP-11 adsorbed immediately after the starting of incubation as being 100%. Furthermore, “2-ME” indicates 2-mercaptoethanol.

[3] = Example 5: residual rate of RCP-11 adsorbed after 2-mercaptoethanol pretreatment; type: physicochemical; conditions: 24 hours
Experimental: In the same manner as in Evaluation 1 about amount of residual polypeptide adsorbed> of Example 3, RCP-11 was added to the respective wells, thereby obtaining a coated cell culture surface. Thereafter, a 2-mercaptoethanol/PBS solution of which the concentration was adjusted in advance as shown in Table 14 was added thereto, followed by incubation for 24 hours, thereby accelerating the desorption of RCP-11.
as §1

iPS cells [4] = assay: Cell adhesiveness evaluation 3 (RCP-1 added amount); type: cell-based, human; conditions: for Cell adhesion rate (%): natural vitronectin 130 pmol/cm^2 = 100%, n=3
Experimental: The cell adhesiveness was evaluated in the same manner as in <Cell adhesiveness evaluation 1>, except that RCP-1 was used after the concentration thereof was adjusted to 125 pmol/cm^2 to 1,000 pmol/cm^2 by using PBS. In Table 10, the cell adhesion rate is expressed as a ratio calculated by regarding a cell adhesion rate with respect to the cell culture surface, onto which natural vitronectin is adsorbed at a concentration of 130 pmol/cm^2, as being 100%. n=3.

iPS cells [5] = assay: Evaluation of maintenance of undifferentiated state (reference examples); type: cell-based, human
Experimental: iPS cells collected in the same manner as in <Cell adhesiveness evaluation 1> were suspended in TeSR2. The iPS cells were seeded into 6-well plate (Tissue culture-treated, Falcon), onto which each of the samples 1, 2, 5, 6, and 7 used in <Cell adhesiveness evaluation 1> was adsorbed in the same manner as in <Cell adhesiveness evaluation 1>, and cultured in a CO2 incubator at 37° C. Except for the day after the seeding, the medium was replaced every day. In the same method as described above, the cells were subcultured every six days.
After being cultured for 1 month under the conditions described above, the cells were immobilized using 4% paraformaldehyde and treated with 1% Triton-X/PBS so as to enhance the membrane permeability. After the cells were subjected to a blocking treatment using an Image IT Signal Enhancer (Invitrogen), an anti-human NANOG antibody (AF 1997, R&D Systems, Inc.), an Alexa Fluor 555 binding rabbit anti-goat IgG antibody (Invitrogen), and DAPI (4′,6-diamidino-2-phenylindole, Dojindo Molecular Technologies, Inc.) were added thereto for labeling, and the cells were imaged using a fluorescence microscope.
FIGS. 3A and 4A show the iPS cells cultured on RCP-1; FIGS. 3B and 4B show the iPS cells cultured on RCP-11; FIGS. 3C and 4C show the iPS cells cultured on natural human vitronectin; FIGS. 3D and 4D show the iPS cells cultured on rLaminin-5; and FIGS. 3E and 4E show the iPS cells cultured on rLaminin-511. The scale bar in the images indicates […]. In FIGS. 3A to 3E, the images on the left side are full images of the colony, and the images on the right side are magnified images. In FIGS. 4A to 4E, the images on the left side are images of the cells stained with DAPI, and the images on the right side are images of the cells stained with an anti-NANOG antibody. The scale bar in FIGS. 3A to 4E indicates 200 μm.

iPS cells [6] = assay: Growth evaluation, growth curves over 8 days; type: cell-based, human
Experimental: The iPS cells collected in the same manner as in <Cell adhesiveness evaluation 1> were seeded into a 96-well plate, onto which RCP-1, RCP-21, and natural human vitronectin were adsorbed, at a ratio of 250 cells/well and cultured for 8 days in a 5% CO2 incubator at 37° C. The number of adhesive cells after different days of culture was measured in the same manner as in <Cell adhesiveness evaluation 1>, thereby obtaining growth curves. […] In FIG. 2, a black rhombus indicates a case using RCP-1, and a black square indicates a case using RCP-21.
From the increase and decrease in the obtained number of cells, the doubling time was calculated. As a result, it was confirmed that it takes 46.4±2.1 hours for the number of cells to be doubled in a case where RCP-1 is used, and 67.7±2.1 hours in a case where RCP-21 is used.

Row | Molecule | Cell growth rate (%) (iPS cells [1]; pretreatment 2-Mercaptoethanol 8.96 μM (0.00007% by mass), Essential 8, 72 hours, PBS pretreatment = 100%) | Cell growth rate (%) (iPS cells [1]; pretreatment 2-Mercaptoethanol 895.94 μM (0.007% by mass), Essential 8, 72 hours, PBS pretreatment = 100%) | Cell growth rate (%) (iPS cells [1]; pretreatment 2-Mercaptoethanol 89.6 mM (0.7% by mass), Essential 8, 10,000 cells/well, 72 hours, PBS pretreatment = 100%) | Cell growth rate (%) (iPS cells [1]; pretreatment PBS, Essential 8, 72 hours, this = 100%) | amount of residual RCP-11 versus 2-mercaptoethanol concentration [2] | Residual rate of RCP-11 adsorbed (%) ([3]; pretreatment 2-Mercaptoethanol 8.96 μM (0.00007% by mass), PBS pretreatment = 100%) | Residual rate of RCP-11 adsorbed (%) ([3]; pretreatment 2-Mercaptoethanol 895.94 μM (0.007% by mass), PBS pretreatment = 100%) | Residual rate of RCP-11 adsorbed (%) ([3]; pretreatment 2-Mercaptoethanol 89.6 mM (0.7% by mass), PBS pretreatment = 100%) | Residual rate of RCP-11 adsorbed (%) ([3]; pretreatment PBS, this = 100%) | Cell adhesion rate (%) (iPS cells [4]; added amount 125 pmol/cm^2) | Cell adhesion rate (%) (iPS cells [4]; added amount 250 pmol/cm^2) | Cell adhesion rate (%) (iPS cells [4]; added amount 500 pmol/cm^2) | Cell adhesion rate (%) (iPS cells [4]; added amount 1000 pmol/cm^2) | adhesiveness of iPS cells (iPS cells [4]; added amount equal to or greater than 125 pmol/cm^2) | form of iPS cell colony (iPS cells [5]; TeSR2, subcultured every six days, FIGS. 3A to 3E) | NANOG expression (iPS cells [5]; cultured for 1 month in TeSR2, anti-NANOG staining, FIGS. 4A to 4E) | doubling time (iPS cells [6]; 250 cells/well, cultured for 8 days) [h] | cell growth properties (iPS cells [6]; FIG. 2)
1 | RCP-11: recombinant polypeptide for culture, SEQ ID NO: 25; vitronectin positions 1-55, 269-277, 295-341, 342-373, C274S (protein, Vitronectin-derived Recombinant Protein (RCP-11), vitronectin positions 1-55, 269-277, 295-341, 342-373, C274S) MDQESCKGRCTEGFNVDKKCQCDELCSYYQSCCTDYTAECKPQVTRGDVFTMPEDESQEESEGSEDIFELLFWGRTSAGTRQPQFISRDWHGVPGQVDAAMAGRIYISGMAPRPSLAKKQRFRHRNRKGYRSQRGHSRGRNQN | 85.2 | 70.7 | 38.0 | 100 | tends to decrease as the concentration of 2-mercaptoethanol increases | 82.2 | 77.4 | 56.6 | 100 | – | – | – | – | – | – | – | – | –
2 | RCP-1: recombinant polypeptide for culture, SEQ ID NO: 15; human vitronectin positions 1-55 and 269-459 with N-terminal methionine (protein, Vitronectin-derived Recombinant Protein (RCP-1)) MDQESCKGRCTEGFNVDKKCQCDELCSYYQSCCTDYTAECKPQVTRGDVFTMPEDEPSQEECEGSSLSAVFEHFAMMQRDSWEDIFELLFWGRTSAGTRQPQFISRDWHGVPGQVDAAMAGRIYISGMAPRPSLAKKQRFRHRNRKGYRSQRGHSRGRNQNSRRPSRATWLSLFSSEESNLGANNYDDYRMDWLVPATCEPIQSVFFFSGDKYYRVNLRTRRVDTVDPPYPRSIAQYWLGCPAPGHL | – | – | – | – | – | – | – | – | – | 90.3 ± 25.3 | 89.2 ± 10.6 | 108.8 ± 23.0 | 98.5 ± 17.2 | equivalent to the cell adhesion rate of the natural vitronection | form specific to undifferentiated cells | strongly expressed NANOG in the entirety of the colony | 46.4 ± 2.1 | higher cell growth properties compared to RCP-21
